Changes are numbered by the printed parent chain. Names and notes keep the numbering of the source.
B1: anti-IL-6 antibody, heavy chain I51A, G66D / light chain WT (antibody, human IgG1, V domains shown)
VH: EVQLVESGGGLVQPGGSLRLSCAASGFTFSPFAMSWVRQAPGKGLEWVAKASPGGSWTYYSDTVTDRFTFSLDTSKSTAYLQMNSLRAEDTAVYYCARQLWGYYALDIWGQGTLVTVSS
VL: DIQLTQSPSSLSASVGDRVTITCSASISVSYMYWYQQKPGKAPKLLIYDMSNLASGVPSRFSGSGSGTDFTLTISSLQPEDFATYYCMQWSGYPYTFGQGTKVEIK
notes: Derived as m2; Engineered human IgG1
B2: anti-IL-6 antibody, heavy chain I51D, G66D / light chain WT (antibody, human IgG1, V domains shown)
VH: B1 VH with A51D
VL: B1 VL
notes: as for B1
B3: anti-IL-6 antibody, heavy chain I51H, G66D / light chain WT (antibody, human IgG1, V domains shown)
VH: B1 VH with A51H
VL: B1 VL
notes: as for B1
B4: anti-IL-6 antibody, heavy chain I51Q, G66D / light chain WT (antibody, human IgG1, V domains shown)
VH: B1 VH with A51Q
VL: B1 VL
notes: as for B1
B5: anti-IL-6 antibody, heavy chain S35P, G66D / light chain WT (antibody, human IgG1, V domains shown)
VH: B1 VH with S35P, A51I
VL: B1 VL
notes: as for B1
B6: anti-IL-6 antibody, heavy chain I51E, G66D / light chain WT (antibody, human IgG1, V domains shown)
VH: B1 VH with A51E
VL: B1 VL
notes: as for B1
B7: anti-IL-6 antibody, heavy chain S35V, G66D / light chain WT (antibody, human IgG1, V domains shown)
VH: B1 VH with S35V, A51I
VL: B1 VL
notes: as for B1
B8: anti-IL-6 antibody, heavy chain I51G, G66D / light chain WT (antibody, human IgG1, V domains shown)
VH: B1 VH with A51G
VL: B1 VL
notes: as for B1
B9: anti-IL-6 antibody, heavy chain I51R, G66D / light chain WT (antibody, human IgG1, V domains shown)
VH: B1 VH with A51R
VL: B1 VL
notes: as for B1
B10: anti-IL-6 antibody, heavy chain S35K, G66D / light chain WT (antibody, human IgG1, V domains shown)
VH: B1 VH with S35K, A51I
VL: B1 VL
notes: as for B1
B11: anti-IL-6 antibody, heavy chain I51T, G66D / light chain WT (antibody, human IgG1, V domains shown)
VH: B1 VH with A51T
VL: B1 VL
notes: as for B1
B12: anti-IL-6 antibody, heavy chain I51F, G66D / light chain WT (antibody, human IgG1, V domains shown)
VH: B1 VH with A51F
VL: B1 VL
notes: as for B1
B13: anti-IL-6 antibody, heavy chain I51W, G66D / light chain WT (antibody, human IgG1, V domains shown)
VH: B1 VH with A51W
VL: B1 VL
notes: as for B1
B14: anti-IL-6 antibody, heavy chain S35F, G66D / light chain WT (antibody, human IgG1, V domains shown)
VH: B1 VH with S35F, A51I
VL: B1 VL
notes: as for B1
B15: anti-IL-6 antibody, heavy chain S35A, G66D / light chain WT (antibody, human IgG1, V domains shown)
VH: B1 VH with S35A, A51I
VL: B1 VL
notes: as for B1
B16: anti-IL-6 antibody, heavy chain S35E, G66D / light chain WT (antibody, human IgG1, V domains shown)
VH: B1 VH with S35E, A51I
VL: B1 VL
notes: as for B1
B17: anti-IL-6 antibody, heavy chain S35G, G66D / light chain WT (antibody, human IgG1, V domains shown)
VH: B1 VH with S35G, A51I
VL: B1 VL
notes: as for B1
B18: anti-IL-6 antibody, heavy chain S35Q, G66D / light chain WT (antibody, human IgG1, V domains shown)
VH: B1 VH with S35Q, A51I
VL: B1 VL
notes: as for B1
B19: anti-IL-6 antibody, heavy chain S35I, G66D / light chain WT (antibody, human IgG1, V domains shown)
VH: B1 VH with S35I, A51I
VL: B1 VL
notes: as for B1
B20: anti-IL-6 antibody, heavy chain I51L, G66D / light chain WT (antibody, human IgG1, V domains shown)
VH: B1 VH with A51L
VL: B1 VL
notes: as for B1
B21: anti-IL-6 antibody, heavy chain S35L, G66D / light chain WT (antibody, human IgG1, V domains shown)
VH: B1 VH with S35L, A51I
VL: B1 VL
notes: as for B1
B22: anti-IL-6 antibody, heavy chain I51V, G66D / light chain WT (antibody, human IgG1, V domains shown)
VH: B1 VH with A51V
VL: B1 VL
notes: as for B1
B23: anti-IL-6 antibody, heavy chain I51K, G66D / light chain WT (antibody, human IgG1, V domains shown)
VH: B1 VH with A51K
VL: B1 VL
notes: as for B1
B24: anti-IL-6 antibody, heavy chain I51P, G66D / light chain WT (antibody, human IgG1, V domains shown)
VH: B1 VH with A51P
VL: B1 VL
notes: as for B1
B25: anti-IL-6 antibody, heavy chain I51S, G66D / light chain WT (antibody, human IgG1, V domains shown)
VH: B1 VH with A51S
VL: B1 VL
notes: as for B1
B26: anti-IL-6 antibody, heavy chain I51Y, G66D / light chain WT (antibody, human IgG1, V domains shown)
VH: B1 VH with A51Y
VL: B1 VL
notes: as for B1
B27: anti-IL-6 antibody, heavy chain S35D, G66D / light chain WT (antibody, human IgG1, V domains shown)
VH: B1 VH with S35D, A51I
VL: B1 VL
notes: as for B1
B28: anti-IL-6 antibody, heavy chain S35T, G66D / light chain WT (antibody, human IgG1, V domains shown)
VH: B1 VH with S35T, A51I
VL: B1 VL
notes: as for B1

Target: T1, human IL-6 (human, UniProt P05231 30-212)
T1 construct: also called interleukin-6
Assay: SPR (Biacore T200), antibody from cell supernatant captured on Protein A, IL-6 flowed over, 37 C
Protocol: Those four positions were selected based on their tolerance for mutations as observed in bacterial and mammalian screens. […] These cultures were centrifuged and supernatants containing secreted antibodies were harvested and diluted in HBS-EP+ running buffer (1:20 ratio).
Antibodies were captured on a Protein A chip (GE) by injecting 1:20 cell supernatant dilutions at 10 μL/min for 60 seconds. […] The sensor chip was regenerated by a 60 seconds injection of 10 mM Glycine pH 1.7 at the flow rate of […]. […] For this setup, 1 μg/mL of purified antibody was injected over a Protein A chip at 10 μL/min for 25 seconds. […] The sensor chip was regenerated by a 60 seconds injection of 10 mM Glycine pH 1.7 at flow rate of 50 μL/min. Data analysis for supernatant and purified samples were performed using BIAevaluation software (GE). All sensorgrams were double reference subtracted and fit using a 1:1 Langmuir binding model.

T1 sequence (P05231 30-212 limits assumed): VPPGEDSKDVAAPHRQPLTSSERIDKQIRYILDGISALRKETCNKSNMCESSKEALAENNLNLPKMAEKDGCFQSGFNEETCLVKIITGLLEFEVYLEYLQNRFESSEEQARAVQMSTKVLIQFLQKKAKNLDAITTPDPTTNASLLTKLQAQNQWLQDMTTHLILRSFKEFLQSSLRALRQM

Row | Binder | Kd [nM] | koff [s⁻¹] | kon [M⁻¹ s⁻¹]
1 | B1 | 0.327 | 0.000576 | 1.76e+06
2 | B2 | 2.69 | 0.00267 | 991000
3 | B3 | 0.348 | 0.000529 | 1.52e+06
4 | B4 | 0.336 | 0.000648 | 1.93e+06
5 | B5 | 11.9 | 0.00123 | 103000
6 | B6 | 1.01 | 0.00076 | 754000
7 | B7 | 0.414 | 0.000469 | 1.13e+06
8 | B8 | 0.428 | 0.000581 | 1.36e+06
9 | B9 | 0.169 | 0.000202 | 1.2e+06
10 | B10 | 0.557 | 0.000949 | 1.7e+06
11 | B11 | 0.232 | 0.000415 | 1.79e+06
12 | B12 | 2.24 | 0.00305 | 1.36e+06
13 | B13 | 4.93 | 0.00943 | 1.91e+06
14 | B14 | 0.749 | 0.00119 | 1.59e+06
15 | B15 | 0.3 | 0.000494 | 1.65e+06
16 | B16 | 0.582 | 0.000509 | 874000
17 | B17 | 0.284 | 0.00036 | 1.27e+06
18 | B18 | 0.302 | 0.000395 | 1.31e+06
19 | B19 | 0.334 | 0.000376 | 1.12e+06
20 | B20 | 0.386 | 0.000733 | 1.9e+06
21 | B21 | 0.315 | 0.000351 | 1.11e+06
22 | B22 | 0.00369 | 6.68e-06 | 1.81e+06
23 | B23 | 0.291 | 0.000402 | 1.38e+06
24 | B24 | 387 | 0.00612 | 15800
25 | B25 | 0.191 | 0.000362 | 1.89e+06
26 | B26 | 3.45 | 0.0051 | 1.48e+06
27 | B27 | 0.321 | 0.000641 | 2e+06
28 | B28 | 0.297 | 0.000409 | 1.38e+06
